Test results: the supplement of paper PMC10724198
± gives the standard deviation of the averaged measurements.

system: Saccharomyces cerevisiae; test: protein stability index of tFT-peptide fusion (C-terminal peptide) (PSI (0-1 scale)); higher = more stable (slower turnover); conditions: genetic background: wild type; temperature: 30 C
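Also: PSI is a weighted mean of sequencing reads over stability bins, variants kept only with over 10 reads, mCherry proximal and sfGFP distal, peptide attached via GGGS linker.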

Sequence | protein stability index
TSPPSLLFAMAR | 0.693 ± 0.038
TSPTPPPTPCRS | 0.6927 ± 0.0067
TSRPLHEQTVSP | 0.677 ± 0.025
TSRTLKPGIPPA | 0.7033 ± 0.0013
TSSPVFPFPPTP | 0.745 ± 0.042
TSSSDCRSPAPP | 0.744 ± 0.038
TSTDLKKTNLQN | 0.645 ± 0.021
TSTRTPTHRGPL | 0.762 ± 0.014
TSYFRRRRSHSH | 0.753 ± 0.01
TTCKTPPTYSFP | 0.71 ± 0.033
TTCLYYDLQIPM | 0.672 ± 0.015
TTIVGRIMRVMR | 0.706 ± 0.012
TTKKKKGKKKYH | 0.681 ± 0.048
TTQEPTPLAQEQ | 0.713 ± 0.024
TTVAIPSINRYS | 0.671 ± 0.051
TTWSPWLGVAET | 0.752 ± 0.07
TVCGTLISFVEG | 0.694 ± 0.028
TVERLGSRRGMA | 0.712 ± 0.022
TVIWNSLRNCKF | 0.819 ± 0.15
TVPFGLPVRPSP | 0.7464 ± 0.004
TVPRSPPSPPLT | 0.7 ± 0.021
TVSGPKTNLGQA | 0.71 ± 0.14
TVYRQRRDAPTR | 0.727 ± 0.022
TWANKRIGRRKE | 0.778 ± 0.039
TWKARFFMDLGN | 0.672 ± 0.12
TWVPYIIMKRER | 0.669 ± 0.019

Sequence | protein stability index
TYANKVKVHCGI | 0.651 ± 0.059
VAAFGGGPTNGV | 0.724 ± 0.013
VAAGGTVSPSSQ | 0.653 ± 0.057
VAAKAHPLASMS | 0.617 ± 0.11
VACFASRVLCRG | 0.503 ± 0.024
VAGRGLGCPGRI | 0.632 ± 0.018
VAGSGAGREAAY | 0.651 ± 0.0067
VAGVLVFGKVGG | 0.694 ± 0.043
VALFPVSFFSWL | 0.643 ± 0.098
VALVCFAAGWLW | 0.507 ± 0.037
VASSGRSPTPTR | 0.7551 ± 0.0015
VAWAQPSGSKAC | 0.697 ± 0.046
VCAAWKCRLDAG | 0.624 ± 0.0043
VCAGGVFRLARG | 0.66 ± 0.12
VCDIRSFALWYA | 0.8 ± 0.024
VCGECGWRRVCL | 0.734 ± 0.028
VCGGLGCSVVLE | 0.721 ± 0.078
VCGGRQGGWGGW | 0.693 ± 0.0098
VCGRTHRVLPTY | 0.641 ± 0.015
VCIAKCKYNKTS | 0.606 ± 0.015
VCLGAWGEGGRG | 0.664 ± 0.071
VCMSLVRGEAGG | 0.657 ± 0.011
VCNFCFLPASLV | 0.636 ± 0.021
VCPPIVSSSWIL | 0.687 ± 0.035
VCPVIGGGGVGV | 0.695 ± 0.0077
VCRGFRHQCWYG | 0.665 ± 0.013

Sequence | protein stability index
VCRLLASCFWRL | 0.655 ± 0.035
VCSLALSRPSTG | 0.6564 ± 0.0018
VCTGYIAGGPVC | 0.659 ± 0.05
VCTPCEFIRTQG | 0.697 ± 0.036
VCVFFLFGYFRL | 0.562 ± 0.22
VCVLGGVWGCRG | 0.66 ± 0.072
VCVSRGPGTSDA | 0.685 ± 0.02
VCWHSNCVGARH | 0.652 ± 0.01
VDGLQYFMYISG | 0.68 ± 0.073
VDGLSGVRPRGL | 0.69 ± 0.033
VDLARWPVPEFW | 0.834 ± 0.022
VDRAPFHLGRQG | 0.712 ± 0.043
VEDGGSREAGEA | 0.627 ± 0.0073
VEERGCCGEAEG | 0.72671 ± 0.00023
VEGISKMTRINP | 0.8698 ± 0.0057
VEGNLIYKKKYK | 0.656 ± 0.053
VEHILQGVKYRR | 0.717 ± 0.098
VESRVVGGGGDW | 0.683 ± 0.047
VEVKEKLKLWSH | 0.691 ± 0.021
VFAHCSRHRGST | 0.7103 ± 0.0029
VFDCLCGLRPGF | 0.632 ± 0.026
VFDGSVSWARHD | 0.6529 ± 0.0053
VFGFLGSLASCR | 0.853 ± 0.2
VFHLATSVRRRY | 0.672 ± 0.051
VFLLSDVCGLGL | 0.583 ± 0.2
VFLVDCFGVCFL | 0.784 ± 0.048

Sequence | protein stability index
VFMWRIRRRLVR | 0.598 ± 0.02
VFPPLSRLLPGP | 0.699 ± 0.1
VFTGVGFVPLVC | 0.5757 ± 0.0034
VGAGRGKWRGGG | 0.6591 ± 0.0013
VGAGVAGGASVS | 0.613 ± 0.027
VGAIGYWCPEWR | 0.651 ± 0.019
VGAPPCYPVSRL | 0.74 ± 0.24
VGCPGGVWVFRG | 0.535 ± 0.011
VGCTSFWLAILR | 0.56 ± 0.026
VGDGLGWGGQGG | 0.678 ± 0.03
VGEIMREVKGPD | 0.72 ± 0.0079
VGFDFLFRFFFL | 0.628 ± 0.037
VGFFGMGVLPEG | 0.741 ± 0.013
VGFSLGGFLFLF | 0.585 ± 0.096
VGGCLFQLSSGY | 0.683 ± 0.035
VGGGASGVGRSG | 0.63009 ± 0.00033
VGGGGERGRGGS | 0.687 ± 0.01
VGGGRAALRWYG | 0.673 ± 0.018
VGGGRFCGCLVV | 0.767 ± 0.015
VGGGRRGGVGEG | 0.652 ± 0.021
VGGRAAIGRGGW | 0.706 ± 0.012
VGGRLLFVGKRG | 0.669 ± 0.051
VGGRMGVDEGKG | 0.669 ± 0.02
VGGRRCVCVWWL | 0.674 ± 0.016
VGHGGRRGVGGW | 0.612 ± 0.057
VGICCCKTYCCS | 0.656 ± 0.074

Sequence | protein stability index
VGIFSLLRCRGE | 0.701 ± 0.035
VGIQQSVVVRLE | 0.6685 ± 0.0034
VGKHNLYSKNWR | 0.66 ± 0.016
VGKSNKYEETHK | 0.747 ± 0.06
VGLGAGGTSLMR | 0.571
VGLGEGGGVGEG | 0.678 ± 0.079
VGLLQRSLAFVL | 0.612 ± 0.031
VGMAGWSRVRWG | 0.715 ± 0.0089
VGMVTADGRLAT | 0.692 ± 0.043
VGNNERDLQQIE | 0.665 ± 0.032
VGRSAAGRLELI | 0.679 ± 0.014
VGSGFGGAGVIG | 0.696 ± 0.045
VGSRWNKELSQS | 0.725 ± 0.081
VGSSPYTVFVSG | 0.747 ± 0.11
VGTRVGCEAGVV | 0.637 ± 0.095
VGVATRGVGGGM | 0.669 ± 0.032
VGVGRAALRWYG | 0.6716 ± 0.0035
VGVGRGALRWYG | 0.704 ± 0.014
VGVKLVVEAIRR | 0.6322 ± 0.0039
VGVLRTSRASPH | 0.646 ± 0.031
VGVLSYYTCYEL | 0.689 ± 0.18
VGVSGCVLWYRV | 0.692 ± 0.031
VGWGLGGGVVLV | 0.675 ± 0.047
VGWRGTGCGRVW | 0.688 ± 0.074
VGWRWGRGRAVW | 0.728 ± 0.067
VGWWVAVGWGLG | 0.704 ± 0.067

Sequence | protein stability index
VGYGTGGAGGVE | 0.766 ± 0.044
VHFFHLCFCEIL | 0.673 ± 0.051
VHLAPPLPPTAT | 0.708 ± 0.021
VHVMSPPPALPV | 0.659 ± 0.013
VHWAALRSVLRG | 0.699 ± 0.047
VIAGSWVAGVSV | 0.655 ± 0.011
VICSIRGYNRLR | 0.711 ± 0.038
VIDQRIDIAYFS | 0.746 ± 0.1
VIEWFVRGRGGG | 0.693 ± 0.01
VIGSSGRVGGLG | 0.6913 ± 0.0028
VILGRGGSICKV | 0.795 ± 0.046
VIYERDSLRGGI | 0.753 ± 0.038
VKGKKREVTDPR | 0.6376 ± 0.0023
VKRSGSDGALHR | 0.685 ± 0.021
VKRVYQRFHVKK | 0.666 ± 0.04
VKSAAGPGRRSS | 0.66 ± 0.015
VKSTRRHGRPQS | 0.723 ± 0.057
VKTLNQKCIKKN | 0.719 ± 0.062
VKYSIEVKRKKK | 0.7181 ± 0.0039
VLAHCLFRCEKN | 0.6062 ± 0.001
VLAWVPNFALLP | 0.677 ± 0.063
VLDLVPDFSNGG | 0.65 ± 0.036
VLDVRLGGRCGE | 0.702 ± 0.072
VLEKFFFGLAIL | 0.569 ± 0.014
VLFLGVRCSCLG | 0.533 ± 0.014
VLFLVGLCRDFA | 0.553 ± 0.036

Sequence | protein stability index
VLFSRFVFLGVL | 0.528 ± 0.0095
VLHQWWCIGLGC | 0.736 ± 0.013
VLKVFIRERRVR | 0.703 ± 0.081
VLLYSGVVKFLQ | 0.586 ± 0.021
VLMSCLFFGIRY | 0.54 ± 0.044
VLPAWSGTHFVG | 0.714 ± 0.017
VLPKQVSEALTL | 0.612 ± 0.024
VLPPLSALAPFD | 0.764 ± 0.029
VLQSTTNPPTSW | 0.631 ± 0.05
VLRFHIRRTQQQ | 0.707 ± 0.012
VLRSPHYRPRRE | 0.673 ± 0.055
VLSDFSFPFFVL | 0.669 ± 0.017
VLSVLGLGFWGG | 0.8042 ± 0.0076
VLTGQQSVFGAK | 0.752 ± 0.096
VLVSGRCCRCGF | 0.701 ± 0.048
VMLGGWRVPGER | 0.7754 ± 0.0033
VMNGGCFGWAVG | 0.628 ± 0.058
VMPSICTKYGVN | 0.717 ± 0.13
VMVNTAWERRKR | 0.673 ± 0.065
VMYLSGCFHSQI | 0.659 ± 0.059
VNILKRQKRARG | 0.72 ± 0.052
VNQSCPRPTPFV | 0.67 ± 0.051
VNTPGVDSDPVA | 0.661 ± 0.11
VPACFSYFLASC | 0.68 ± 0.04
VPCILLFSHFKH | 0.619 ± 0.042
VPCPPRRLAPRG | 0.582 ± 0.015

Sequence | protein stability index
VPDGPAHIPLPL | 0.683 ± 0.065
VPDGVAGRRPDR | 0.679 ± 0.056
VPLIFSTFVSIS | 0.54 ± 0.009
VPLSPPRTPTLY | 0.648 ± 0.12
VPPALPRSPGPP | 0.72 ± 0.069
VPPGVVSSPCPN | 0.661 ± 0.056
VPPHPFFPLPPP | 0.788 ± 0.099
VPPKHLYPLPPP | 0.612 ± 0.007
VPPPALPPCPAF | 0.723 ± 0.037
VPPPRLCPERPH | 0.719 ± 0.063
VPPRPAPRLRPP | 0.695 ± 0.07
VPRAPSPCPVSL | 0.71 ± 0.046
VPRSSGAILGFL | 0.637 ± 0.015
VPSGTHHPFTLS | 0.751 ± 0.02
VPSLRSTLPPPL | 0.731 ± 0.051
VPTCFPLSPSPP | 0.714 ± 0.016
VPTLCDQVFLFA | 0.627 ± 0.0086
VPVGSWVGIGGK | 0.692 ± 0.043
VPVSNLCERTAG | 0.648 ± 0.011
VQCRIREELWGG | 0.6919 ± 0.0047
